The assay addresses T1, CD123 ECD wt (human, UniProt P26951 19-305).
T1 construct: Recombinant extracellular domain; Biotinylated when captured for the hIL3 assay; also called CD123_WT; recombinant wildtype CD123
T1 sequence: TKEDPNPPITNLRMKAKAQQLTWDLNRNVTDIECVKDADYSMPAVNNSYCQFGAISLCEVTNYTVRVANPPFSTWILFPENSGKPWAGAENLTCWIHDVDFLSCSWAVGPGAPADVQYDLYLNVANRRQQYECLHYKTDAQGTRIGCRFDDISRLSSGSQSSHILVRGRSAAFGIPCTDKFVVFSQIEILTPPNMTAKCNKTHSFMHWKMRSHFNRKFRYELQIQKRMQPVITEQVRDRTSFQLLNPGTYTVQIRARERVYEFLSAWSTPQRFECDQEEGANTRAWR
Briefly: BLI (Octet), flotetuzumab hIgG1 captured on anti-human Fc tips, CD123 ECD as analyte, level at 250 s. As for the experimental part:
Antibody flotetuzumab hIgG1 was captured by Anti-Human Fc capture biosensor (AHC) (Sartorius, PN: 18-5060) for 300 s at 0.5 μg/mL. Analytes CD123 ECD wt and variants (only CD123 ECD variants at high analyte concentrations) were titrated at 7 concentrations from 50 nM to 0.78 nM or 300 nM to 4.7 nM, respectively. Association to analyte was monitored for 300 s and dissociation for 600 s (CD123 wt) and 900 s (CD123 variants). Double reference subtraction was performed against buffer only well and biosensor loaded with a negative hIgG1 control. Regeneration was performed in 10 mM Gly-HCl pH 1.7. Data were analyzed using the Octet Data Analysis software HT

B1: Flotetuzumab hIgG1 (antibody, V domains shown)
VH: EVQLVQSGAELKKPGASVKVSCKASGYTFTDYYMKWVRQAPGQGLEWIGDIIPSNGATFYNQKFKGRVTITVDKSTSTAYMELSSLRSEDTAVYYCARSHLLRASWFAYWGQGTLVTVSS
VL: DFVMTQSPDSLAVSLGERVTMSCKSSQSLLNSGNQKNYLTWYQQKPGQPPKLLIYWASTRESGVPDRFSGSGSGTDFTLTISSLQAEDVAVYYCQNDYSYPYTFGQGTKLEIK
notes: Tested as hIgG1 in BLI; also called Anti-CD123 antibody (Flotetuzumab)
With B1, the binding result was “binds”.

(Values after patent US20250326818A1 (UNIVERSIT T BASEL, published 2025).)
